The values that follow come from US20240239894A1, “THERAPEUTIC BINDING MOLECULES” (MedImmune Limited, priority 2020, published 2024).

Assay [1] concerns the target human B7-H4 on cells (human) (UniProt Q7Z7D3). Kind of assay: flow cytometry, AF647-labelled antibody at 78 ng/ml, SKBR-3 cells. Background: A flow cytometer gives signals particle by particle.
Assay [2] shares this target. The assay is described as follows: flow cytometry, AF647-labelled antibody at 312 ng/ml, SKBR-3 cells.

Sequence of human B7-H4 on cells (human) (Q7Z7D3 25-282 limits assumed): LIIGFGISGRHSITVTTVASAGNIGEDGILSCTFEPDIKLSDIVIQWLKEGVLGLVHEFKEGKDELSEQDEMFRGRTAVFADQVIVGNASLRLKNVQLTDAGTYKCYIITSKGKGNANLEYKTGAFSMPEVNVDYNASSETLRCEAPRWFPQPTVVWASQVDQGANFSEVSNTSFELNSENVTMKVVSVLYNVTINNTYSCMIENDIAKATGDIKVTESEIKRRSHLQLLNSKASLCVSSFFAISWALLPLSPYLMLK

On to “R347-maia human IgG1 (isotype control) (antibody)”, for which the Geometric Mean : Comp-APC-A stood at 101 in assay [1] and 121 in assay [2].
